Target: recombinant glycosylated HIV-1 IIIB gp120 (baculovirus) (HIV-1 IIIB) (UniProt P04578)
Assay: SPR

Substance | Ka | Kd | kon | koff
His-tagged recombinant KAA-1 (natural protein) | 1.48e+09 M⁻¹ | 0.677 nM | 871000 M⁻¹ s⁻¹ | –
recombinant KAA-1 (His tag removed by thrombin) (natural protein) | 1.61e+09 M⁻¹ | 0.622 nM | – | 0.000529 s⁻¹
